Laboratory results from US20040248129A1, “Rhesus monkey, dog and feeret melanin-concentrating hormone type 1 receptor” (priority 2001, published 2004).
“And” between values parts separate entries of the source, which are not always exact repeats. Equal entries are not always repeated. One block for each molecule: values may come before it. Positions of bridges follow the written chain, without caps; N, C: chain ends. No end group written: not given here.

Tests used:
[1] = molecular target: T1, rhesus MCH-1R (Macaca mulatta, UniProt Q8MJ89); experiment: Inhibition of [125I]-MCH binding to rhesus MCH-1R expressed on HEK293T cells (filtration); design: species or system rhesus monkey; conditions: 100 pM [125I]-MCH, 4×10^5 cells/tube, 30 min, 37° C.
T1 construct: expressed in transfected cells; host or cells: HEK293T
Description: (§1) HEK293T cells transfected with pEF1IV5-HisB/MCH1R plasmid were harvested by phosphate-buffered saline containing 2 mM EDTA 48 hours after transfection, and washed once with the assay buffer (Hanks' balanced salt solution containing 20 mM HEPES, 0.2% BSA and 100 μg/ml bacitracin, pH 7.4). The cells (4×10^5 cells/tube) were then incubated in 250 μl/tube of the same buffer with 100 pM […] for 30 minutes at 37° C. After the incubation, bound and free [^25I]-MCH were separated by filtration using a Unifilter GF/B glass filter (Packard Instrument) presoaked with 0.3% polyethylenimine. The remaining radioactivity on the filter was quantitated using a TopCount HTS (Packard instrument) with a Microscint 0 scintillation cocktail (Packard instrument). Specific binding was defined as the difference between total binding and nonspecific binding in the presence of 1 μM cold MCH. Data were analyzed using GraphPad Prism Version 3.0.

[2] = molecular target: T1, rhesus MCH-1R; experiment: Intracellular calcium (fura-2) in HEK293T cells transiently expressing rhesus MCH-1R; type: cell-based, rhesus monkey; conditions: read-out: EC50, increase in intracellular calcium levels
From the text: The entire coding sequence of rhesus MCH-1R was cloned into EcoRI-NotI site of pEF1lV5-HisB plasmid vector (Invitrogen, Carlsbad, Calif.). The resultant construct was transfected into HEK293T cells using LipofectAmine PLUS (Life Technologies, Rockville, Md.) according to the manufacture's instructions. Human embryonic kidney cells constitutively expressing SV40 large T antigen (HEK-293T) were maintained in Dulbecco's modified Eagle medium (Life Technologies) supplemented with 10% fetal bovine serum, 100 units/ml penicillin-G and 100 μg/ml streptomycin at 37° C. with 5% CO2 in a humidified atmosphere.
The intracellular calcium ion concentration ([Ca^2+]i) was measured fluorometrically using a Ca^2+-sensitive fluorescent dye, fura-2. HEK293T cells transiently transfected with pEF1N5-HisB plasmid vector harboring rhesus MCH-1R cDNA were harvested by phosphate-buffered saline containing 2 mM EDTA 48 hours after transfection, and washed once with the assay buffer (Hanks' balanced salt solution containing 20 mM HEPES and 0.1% BSA, pH 7.4). […] Data were analyzed using the software GraphPad Prism Version 3.0 (GraphPad Software, Inc., San Diego, Calif., USA).

[3] = test system: mock transfected cells (HEK293T); experiment: Radioligand binding to mock transfected HEK293T cells; design: species or system human
[4] = molecular target: T1, rhesus MCH-1R; experiment: Radioligand binding to adherent HEK293T cells transfected with rhesus MCH-1R; design: species or system rhesus monkey
Description: HEK293T cells were seeded into 24-well culture plates coated with poly-D-Lys at 1×10^5 cells/well and were cultured during over-night. The adherent cells were transfected with pEF1/V5-HisB/rhesus MCH-1R plasmid (see Example 2). Forty-eight hours after transfection, the transfected monolayer cells were rinsed with the assay buffer (Hanks' balanced salt solution containing 20 mM HEPES, 0.2% BSA and 100 μg/ml bacitracin, pH 7.4). The cells were then incubated in 250 μl well of the same buffer with [^125I]-MCH (100 pM, NEN Life Science Products, Boston, Mass.) or [^125I]-[Phe^13,Tyr^19]-MCH (100 pM, NEN Life Science Products) for 30 minutes at 37° C. After the incubation, the cells were washed three times with the ice cold assay buffer and lysed with 500 μl/well of 2 M NaOH. The lysates were transferred into test tubes and the cell- bound radioactivity was measured by a COBLA Quantum γ-counter (Packard Instrument, Meriden, CT). Nonspecific binding was defined in the presence of 1 μM cold MCH or [Phe^13,Tyr^19]-MCH for the corresponding radio ligands.

[5] = molecular target: rhesus monkey MCH-1R (melanin-concentrating hormone type 1 receptor) (rhesus monkey) (UniProt Q8MJ89); experiment: radioligand binding, 100 pM, HEK293T cells expressing rhesus MCH-1R, replicate 2
[6] = molecular target: rhesus monkey MCH-1R (melanin-concentrating hormone type 1 receptor) (rhesus monkey) (UniProt Q8MJ89); experiment: radioligand binding, 100 pM, in the presence of 1 uM cold [Phe13,Tyr19]-MCH, HEK293T cells expressing rhesus MCH-1R, replicate 1
[7] = molecular target: rhesus monkey MCH-1R (melanin-concentrating hormone type 1 receptor) (rhesus monkey) (UniProt Q8MJ89); experiment: radioligand binding, 100 pM, HEK293T cells expressing rhesus MCH-1R, replicate 3
[8] = molecular target: rhesus monkey MCH-1R (melanin-concentrating hormone type 1 receptor) (rhesus monkey) (UniProt Q8MJ89); experiment: radioligand binding, 100 pM, in the presence of 1 uM cold [Phe13,Tyr19]-MCH, HEK293T cells expressing rhesus MCH-1R, replicate 3
[9] = molecular target: rhesus monkey MCH-1R (melanin-concentrating hormone type 1 receptor) (rhesus monkey) (UniProt Q8MJ89); experiment: radioligand binding, 100 pM, in the presence of 1 uM cold [Phe13,Tyr19]-MCH, HEK293T cells expressing rhesus MCH-1R, replicate 2
[10] = molecular target: rhesus monkey MCH-1R (melanin-concentrating hormone type 1 receptor) (rhesus monkey) (UniProt Q8MJ89); experiment: radioligand binding, 100 pM, HEK293T cells expressing rhesus MCH-1R, replicate 1
[11] = molecular target: T2, rhesus monkey MCH-1R (melanin-concentrating hormone type 1 receptor) (rhesus monkey, UniProt Q8MJ89 1-353); experiment: cell-based or functional assay
[12] = molecular target: T2, rhesus monkey MCH-1R …; experiment: displacement of 100 pM [125I]-MCH from HEK293T cells expressing rhesus MCH-1R, filtration
Description: as §1, with “(4×10⁵” for “(4×10^5”, “[²⁵I]-MCH” for “[^25I]-MCH”
IC₅₀ values of MCH and [Phe¹³,Tyr¹⁹]-MCH in this experiment were calculated as 0.074 and 0.14 nM, respectively.

[13] = molecular target: T3, rhesus monkey MCH-1R (melanin-concentrating hormone type 1 receptor) (rhesus monkey), Q8MJ89; experiment: cell-based or functional assay
T3 chain: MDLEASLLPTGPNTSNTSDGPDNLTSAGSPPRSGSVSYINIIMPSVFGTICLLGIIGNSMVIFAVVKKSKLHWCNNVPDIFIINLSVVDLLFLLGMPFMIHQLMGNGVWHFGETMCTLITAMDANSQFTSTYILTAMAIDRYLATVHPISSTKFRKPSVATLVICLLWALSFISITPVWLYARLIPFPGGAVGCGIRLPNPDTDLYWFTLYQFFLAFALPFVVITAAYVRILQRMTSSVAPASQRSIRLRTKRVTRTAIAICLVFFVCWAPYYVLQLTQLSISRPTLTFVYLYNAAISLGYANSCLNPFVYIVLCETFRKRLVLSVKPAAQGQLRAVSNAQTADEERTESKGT

[14] = molecular target: T3, rhesus monkey MCH-1R …; experiment: displacement of 100 pM [125I]-MCH from HEK293T cells expressing rhesus MCH-1R, filtration
[15] = Mock transfected HEK293T, 100 pM radioligand
[16] = Rhesus MCH-1R transfected HEK293T, 100 pM radioligand, 30 min, 37° C.

Molecule: [^125I]-MCH
Specific binding into mock transfected cells (in words) ([3]; 100 pM radioligand): Specific binding was not observed
[125I]-MCH binding, Total binding [3, 15]: 209.9 cpm and 215.8 cpm and 239.8 cpm
[125I]-MCH binding, Nonspecific binding ([3]; Mock transfected HEK293T, 100 pM radioligand in the presence of 1 μM cold MCH): 172.0 cpm and 180.9 cpm and 184.1 cpm
Binding to HEK293T cells expressing rhesus MCH-1R (in words) ([4]; 100 pM radioligand): bound to the HEK293T cells expressing rhesus MCH-1R with good windows
[125I]-MCH binding, Total binding [4, 16]: 2542.8 cpm and 2893.4 cpm and 2315.5 cpm

Molecule: [^125I]-[Phe^13,Tyr^19]-MCH
Specific binding into mock transfected cells (in words) ([3]; 100 pM radioligand): Specific binding was not observed
[125I]-[Phe13,Tyr19]-MCH binding, Total binding [3, 15]: 708.9 cpm and 663.3 cpm and 771.5 cpm
[125I]-[Phe13,Tyr19]-MCH binding, Nonspecific binding ([3]; Mock transfected HEK293T, 100 pM radioligand in the presence of 1 μM cold [Phe13,Tyr19]-MCH): 539.7 cpm and 537.7 cpm and 557.8 cpm
Binding to HEK293T cells expressing rhesus MCH-1R (in words) ([4]; 100 pM radioligand): bound to the HEK293T cells expressing rhesus MCH-1R with good windows
[125I]-[Phe13,Tyr19]-MCH binding, Nonspecific binding ([4]; Rhesus MCH-1R transfected HEK293T, 100 pM radioligand in the presence of 1 μM cold [Phe13,Tyr19]-MCH): 1524.1 cpm and 2023.5 cpm and 1029.6 cpm
[125I]-[Phe13,Tyr19]-MCH binding, Total binding [4, 16]: 5353.0 cpm and 5542.3 cpm and 6345.9 cpm

Molecule: [^125I]-[Phe^13,Tyr^19]-MCH (from UniProt P20382 147-165) (peptide)
Total binding (cpm) [5]: 5540 cpm
Nonspecific binding (cpm) [6]: 1520 cpm
Total binding (cpm) [7]: 6350 cpm
Nonspecific binding (cpm) [8]: 1030 cpm
Nonspecific binding (cpm) [9]: 2020 cpm
Total binding (cpm) [10]: 5350 cpm

Molecule: DFDMLRCMLGRVYRPCWQV (peptide, UniProt P20382 147-165, looked up, modifications not checked) [MCH (melanin-concentrating hormone), unlabelled, P20382 147-165]
increase in intracellular calcium levels (fura-2) in HEK293T cells transiently expressing rhesus MCH-1R, EC50 [13]: 0.3 nM
IC50 [14]: 0.074 nM

Further lines, results first:

IC50 [1]: 0.074 nM
EC50 [2]: 0.3 nM
Molecule: CSCC[C@@H]1NC(=O)[C@@H](NC(=O)[C@H](CCCNC(=N)N)NC(=O)[C@H](CC(C)C)NC(=O)[C@H](CCSC)NC(=O)[C@H](CC(=O)O)NC(=O)[C@H](Cc2ccccc2)NC(=O)[C@@H](N)CC(=O)O)CSSC[C@@H](C(=O)N[C@@H](Cc2c[nH]c3ccccc23)C(=O)N[C@@H](CCC(N)=O)C(=O)N[C@H](C(=O)O)C(C)C)NC(=O)[C@@H]2CCCN2C(=O)[C@H](CCCNC(=N)N)NC(=O)[C@H](Cc2ccc(O)cc2)NC(=O)[C@H](C(C)C)NC(=O)[C@H](CCCNC(=N)N)NC(=O)CNC(=O)[C@H](CC(C)C)NC1=O [MCH, Melanin-concentrating hormone]

increase in intracellular calcium levels (fura-2) in HEK293T cells transiently expressing rhesus MCH-1R, EC50 [11]: 1.1 nM
IC50 [12]: 0.14 nM
B1: [Phe^13,Tyr^19]-MCH, unlabelled (peptide)
peptide: DFDMLRCMLGRVFRPCWQY
modifications: disulfide 7-16 (inferred)
notes: Only the new residues (Phe13, Tyr19) are printed; also called cold [Phe^13,Tyr^19]-MCH
